The target in assay [1] is ptau 187-212 (pY197, pT205 by the sequence printed in Table 11) (human). Put plainly: peptide ELISA, 2 ug/mL.
The target of assay [2] is ptau 187-212 (pS202, pT205 by the sequence printed in Table 22) (human). Put plainly: Ala-scan peptide ELISA, 1 ug/mL. (An ELISA detects its analyte on a solid surface through an enzyme-linked reagent.)

The values below come from patent US20170210787A1.

Some results are limits rather than exact numbers.

CBTAU-7.1 (antibody), sequence (VH): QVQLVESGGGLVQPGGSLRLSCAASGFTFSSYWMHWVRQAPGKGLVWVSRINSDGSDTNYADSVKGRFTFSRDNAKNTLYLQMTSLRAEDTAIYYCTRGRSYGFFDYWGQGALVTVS
CBTAU-7.1 (antibody), sequence (VL): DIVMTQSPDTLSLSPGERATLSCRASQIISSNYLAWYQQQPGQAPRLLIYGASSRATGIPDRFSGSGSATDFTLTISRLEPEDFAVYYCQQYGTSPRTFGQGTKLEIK

As for CBTAU-7.1 (antibody), the figures for the OD450 in assay [1] and in assay [2] were 0.5 to 1 od and above 1.5 od, respectively.
